# From IntAct's records for PubMed 18273060
# B1: Growth factor receptor-bound protein 7 (Mus musculus), Q03160 (parent)
# chain: MELDLSPTHLSSSPEDVCPTPATPPETPPPPDNPPPGDVKRSQPLPIPSSRKLREEEFQATSLPSIPNPFPELCSPPSQKPILGGSSGARGLLPRDSSRLCVVKVYSEDGACRSVEVAAGATARHVCEMLVQRAHALSDESWGLVESHPYLALERGLEDHEFVVEVQEAWPVGGDSRFIFRKNFAKYELFKSPPHTLFPEKMVSSCLDAQTGISHEDLIQNFLNAGSFPEIQGFLQLRGSGRGSGRKLWKRFFCFLRRSGLYYSTKGTSKDPRHLQYVADVNESNVYVVTQGRKLYGMPTDFGFCVKPNKLRNGHKGLHIFCSEDEQSRTCWLAAFRLFKYGVQLYKNYQQAQSRHLRLSYLGSPPLRSVSDNTLVAMDFSGHAGRVIDNPREALSAAMEEAQAWRKKTNHRLSLPTTCSGSSLSAAIHRTQPWFHGRISREESQRLIGQQGLVDGVFLVRESQRNPQGFVLSLCHLQKVKHYLILPSEDEGCLYFSMDEGQTRFTDLLQLVEFHQLNRGILPCLLRHCCARVAL
# Variants of: B1
# Details: with elav1_mouse Elavl1, P70372
# elav1_mouse Elavl1, P70372, sequence (P70372 whole entry): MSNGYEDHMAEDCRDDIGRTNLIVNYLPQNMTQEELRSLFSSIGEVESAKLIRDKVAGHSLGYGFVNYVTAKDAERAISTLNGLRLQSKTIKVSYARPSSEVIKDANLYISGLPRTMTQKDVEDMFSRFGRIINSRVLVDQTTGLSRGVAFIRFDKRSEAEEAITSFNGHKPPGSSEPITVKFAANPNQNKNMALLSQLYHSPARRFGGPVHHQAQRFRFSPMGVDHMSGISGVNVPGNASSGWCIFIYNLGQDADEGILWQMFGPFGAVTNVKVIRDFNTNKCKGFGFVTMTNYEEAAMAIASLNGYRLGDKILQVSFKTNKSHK
row,effect of a mutation on the interaction,Variant
1,increasing interaction,Y495F
